The results in this text go back to paper PMC3037030.

Substrate in this series: CCCCC/C=C\C/C=C\C/C=C\C/C=C\CCCC(=O)O
In words: radiometric acyl-CoA synthetase assay. The conditions noted are these: ATP, Mg2+. Type of series: biochemical, Rattus norvegicus.

B1: Acsl3 (Rattus norvegicus) (protein)
chain: MNNHVSSTPSTMKLKQTIHPILLYFIHFIISLYTILTYIPFYFLCESKQEKPNHIKAKPVSSKPDSAYRSVNSMDGLASVLYPGCDTLDKVFMYAKNKFKDKRLLGTREILNEEDEIQPNGKVFKKVILGHYNWLSYEDVFIRALDFGNGLQMLGQKPKANIAIFCETRAEWMIAAQACFMYNFQLVTLYATLGGPAIVHGLNETEVTNIITSKELLQTKLKDIVSLVPRLRHIITVDGKPPTWSEFPKGVIVHTMAAVQALGVKADVDKKAHSKPLPSDIAVIMYTSGSTGIPKGVMISHSNIIASITGMARRIPRLGEEDVYIGYLPLAHVLELSAELVCLSHGCRIGYSSPQTLADQSSKIKKGSKGDTSVLKPTLMAAVPEIMDRIYKNVMNKVNEMSAFQRNLFILAYNYKMEQISKGCSTPLCDRFVFRNVRRLLGGNIRVLLCGGAPLSATTQRFMNICFCCPVGQGYGLTESTGAGTITEVWDYNTGRVGAPLVCCEIKLKNWEEGGYFNTDKPHPRGEILIGGQNVTMGYYKNEAKTKADFFEDENGQRWLCTGDIGEFDPDGCLKIIDRKKDLVKLQAGEYVSLGKVEAALKNLPLIDNICAYANSYHSYVIGFVVPNQKELTELARTKGFNGTWEELCNSSEMENEVLKVLSEAAISASLEKFEIPLKIRLSPDPWTPETGLVTDAFKLKRKELKTHYQADIERMYGRK
Consider B1, for which the Michaelis constant (Km) was 48 µM, the Vmax came out at 0.008 µmol/min/mg and the Vmax/Km was found to be 3e-05 min⁻¹.
